Source: PMC4859805, “Molecular mechanism of activation-triggered subunit exchange in Ca^2+/calmodulin-dependent protein kinase II” (eLife, 2016)
Values joined by “and” are separate entries in the source; they are usually repeats but may differ in a detail not shown here. Equal entries are not always repeated. Blank lines part the entries; values can stand above or below the molecule they belong to. Square brackets hold non-standard residues; d marks the D form. Ends that are not written are not given here. pT = C[C@@H](OP(=O)(O)O)[C@H](N)C(=O)O

B5: human CaMKII-α hub domain (domain or fragment, UniProt Q9UQM7 345-475, looked up)
chain: VRKQEIIKVTEQLIEAISNGDFESYTKMCDPGMTAFEPEALGNLVEGLDFHRFYFENLWSRNSKPVHTTILNPHIHLMGDESACIAYIRITQYLDAGGIPRTAQSEETRVWHRRDGKWQIVHFHRSGAPSV
notes: Ca2+/calmodulin-dependent protein kinase II alpha, human, hub domain; residues 345-475 are stated for the crystallization construct; The limits are stated only for the crystallization construct; also called the hub; isolated hub; source: E. coli BL21, purified (Ni-NTA, Q-FF, Superose 6); not shown: His6, N-terminal, cleaved; copies: 12 or 14

Columns and labels:
human CaMKII-α hub [1] = target: T1, human CaMKII-α hub (Homo sapiens, UniProt Q9UQM7); test: Fluorescence polarization competition assay with unlabeled peptides; type: binding
T1 construct: human CaMKII-α hub consisted of residues 345–475 (UNIPROT id: Q9UQM7); 6-histidine tag with PreScission protease site (N, cleaved yes); made in house; host or cells: E. coli BL21
T1 sequence (Q9UQM7 345-475): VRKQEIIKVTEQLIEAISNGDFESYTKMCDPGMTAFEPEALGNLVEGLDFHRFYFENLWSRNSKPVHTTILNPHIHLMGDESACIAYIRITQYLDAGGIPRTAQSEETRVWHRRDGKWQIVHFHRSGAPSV
Experimental: For the competition experiments, 2 nM of various labeled peptides were bound to 30 μM of the hub, resulting in high fluorescence polarization. Upon titration with the corresponding unlabeled versions of the peptides, the labeled peptides were competed off, and the fluorescence polarization decreased to the baseline value (Figure 3C–E). The value of the inhibition constant, IC50, is ~100 μM for the unlabeled peptides, whether phosphorylated or not. […]
(§1) The fluorescence polarization binding experiments were initiated by adding 15 μL of 2 nM BODIPY labeled peptides (buffer: 25 mM Tris at pH 8.0) to 15 μL of different concentrations of the human CaMKII-α hub domain (ranging from 0–1000 μM in 25 mM Tris at pH 8.0, 150 mM KCl, 10% glycerol and 0.02% Tween). […] The fluorescence polarization was read from 20 μL of these reaction mixtures in opaque black 96-well plates using a Synergy H4 hybrid microplate reader with a 485/20 nm excitation filter, and a 528/20 nm emission filter. Error bars are calculated from the standard error of mean between replicates of experiments. […]
where, A is the observed fluorescence polarization (FP) value, Af is the FP value for free labeled ligand, A0 is the FP value in the absence of unlabeled ligand, KD is the dissociation constant, [P]tot is the total protein concentration, and [L]tot is the total concentration of the unlabeled ligand. […]

[2] = target: N. vectensis CaMKII-A hub domain (Nematostella vectensis); test: crystal structure; N. vectensis CaMKII-A hub; 0.2 M potassium thiocyanate, 20% w/v PEG 3350, pH 7.0
[3] = target: N. vectensis CaMKII-B hub domain (Nematostella vectensis); test: crystal structure; N. vectensis CaMKII-B hub; 2.5 M sodium chloride, 0.1 M acetate pH 4.2, 0.25 M lithium sulphate
human CaMKII-α hub [4] = target: T1, human CaMKII-α hub; test: Fluorescence polarization, direct titration of hub to BODIPY-labeled peptide; conditions: 2 nM Bodipy-FL-labeled peptide, hub 0-1000 μM, 25 mM Tris pH 8.0; non-saturable binding at high hub concentrations, value not relied on; read-out: KD derived from direct titration of the hub to the labeled peptide
From the text: To analyze the mechanism of subunit exchange, we focused initially on potential interactions between the CaM-binding element and the hub. We had shown previously that mutation of the CaM-binding element blocks subunit exchange, and that phosphorylation of Thr 305 and Thr 306 in the CaM-binding element potentiates exchange ([Stratton et al., 2014]). We prepared both phosphorylated and unphosphorylated forms of peptides spanning the CaM-binding element of CaMKII-α (see Materials and methods). The peptides were labeled with a fluorophore (Bodipy-FL maleimide) at the C-terminal end, and binding was monitored by changes in fluorescence polarization (Figure 3A). To a fixed volume of labeled peptide (2 nM), increasing concentrations of the hub was added, and the change in fluorescence polarization was monitored (Figure 3B). […]
as §1, with “filter.” for “filter. Error bars are calculated from the standard error of mean between replicates of experiments.”

[5] = target: S. rosetta CaMKII holoenzyme, full length, wild type (Salpingoeca rosetta); test: native MS; full-length S. rosetta CaMKII at 3 μM; 1 M ammonium acetate pH 7.2
[6] = target: S. rosetta CaMKII holoenzyme, full length, wild type (Salpingoeca rosetta); test: native MS; full-length S. rosetta CaMKII at 48 μM; 1 M ammonium acetate pH 7.2
[7] = target: S. rosetta CaMKII holoenzyme, full length, wild type (Salpingoeca rosetta); test: native MS; full-length S. rosetta CaMKII at 12 μM; 1 M ammonium acetate pH 7.2
[8] = target: S. rosetta CaMKII holoenzyme, full length, wild type (Salpingoeca rosetta); test: SEC; analytical gel filtration, Superose 6 10/300, 25 mM Tris pH 8.0, 150 mM KCl, 10% glycerol, 1 mM TCEP or 2 mM DTT; injection at 700 nM subunits; tryptophan fluorescence
[9] = target: S. rosetta CaMKII hub domain (Salpingoeca rosetta); test: SEC-MALS; S. rosetta hub at ∼3.2 mg/ml (~200 μM) on Superdex 200 10/300; 25 mM Tris pH 8.0, 150 mM KCl, 1 mM TCEP, 10% glycerol; 25°C
[10] = target: hub-△kinase (hub, linker and autoinhibitory segment of human CaMKII-α, without the kinase domain) (human); test: SEC; analytical gel filtration, Superose 6 10/300, 25 mM Tris pH 8.0, 150 mM KCl, 10% glycerol, 1 mM TCEP or 2 mM DTT; injection at 700 nM subunits; tryptophan fluorescence
[11] = target: B5; test: fluorescence polarisation; competition: 2 nM BODIPY labelled peptide bound to 30 μM hub, unlabeled peptide 0-500 μM added; KD from a non-linear fit assuming one peptide site per subunit and equal KD of labelled and unlabeled peptide; conditions: both partners purified
[12] = target: the molecule itself; test: crystal structure; human CaMKII-α hub with uncleaved tag; 35% (v/v) MPD, 0.1 M HEPES pH 7.3
[13] = target: the molecule itself; test: native MS; human hub; nanoelectrospray Q-TOF, 1 M ammonium acetate pH 7.2; CID MS/MS at 30 V collision energy
[14] = target: the molecule itself; test: native MS; F397A hub: 200 μM in 1 M ammonium acetate; 2 μM in 25 mM Tris, 1 mM TCEP, pH 8; 250 mM ammonium acetate, 25 mM Tris, 1 mM TCEP, pH 8; oligomer identity confirmed by CID
[15] = target: the molecule itself; test: SEC; analytical gel filtration, Superose 6 10/300; elevated injection concentration of 3–5 μM; reinjection of the dodecamer/tetradecamer peak of the holoenzyme; pre-incubation with Mg2+-ATP for the holoenzyme

- Kd (human CaMKII-α hub [1]; 2 nM labeled peptide bound to 30 μM hub, competed with unlabeled peptide 0-500 μM, 25 mM Tris pH 8.0, non-linear least squares fit, one peptide-binding site per subunit, labeled peptide A used for peptide B, read-out: KD from competition experiments): 52 µM
Molecule: CC[C@H](C)[C@H](NC(=O)[C@H](C)NC(=O)CNC(=O)[C@H](CCCCN)NC(=O)[C@H](CC(C)C)NC(=O)[C@H](CCCCN)NC(=O)[C@H](CCCNC(=N)N)NC(=O)[C@H](CCCNC(=N)N)NC(=O)[C@H](C)NC(=O)[C@H](CC(N)=O)NC(=O)[C@H](Cc1ccccc1)NC(=O)[C@H](CCCCN)NC(=O)[C@H](CCCCN)NC(=O)[C@@H](N)CC(C)C)C(=O)N[C@@H](CC(C)C)C(=O)N[C@H](C(=O)N[C@H](C(=O)N[C@@H](CCSC)C(=O)N[C@@H](CC(C)C)C(=O)N[C@@H](C)C(=O)N[C@@H](CS)C(=O)O)[C@@H](C)OP(=O)(O)O)[C@@H](C)O [peptide D]

- Ability to compete the binding of the labeled peptide (human CaMKII-α hub [1]; hub bound to labeled peptide A, competition with unlabeled mutant peptides (Figure 3F)): fails to compete
Molecule: LKEFNAERKLEGAILTTMLA [Peptide G, triple mutant of the residues 290-309 peptide, three positively charged residues replaced by Glu]

- stoichiometry N [2]: 14
Molecule: N. vectensis CaMKII-A hub domain (domain or fragment)

- stoichiometry N [3]: 14
Molecule: N. vectensis CaMKII-B hub domain (domain or fragment)

- Kd (human CaMKII-α hub [4]): ~100 µM
Molecule: RRKLKGAILTTMLATRC [peptide A]

- stoichiometry N [5]: 2 and 4
- stoichiometry N [6]: 4 and 6 and 8
- stoichiometry N [7]: 4 and 6
- stoichiometry N [8]: 2
Molecule: S. rosetta CaMKII holoenzyme, full length, wild type

- stoichiometry N [9]: 4
Molecule: S. rosetta CaMKII hub domain (domain or fragment)

- percent of the sample in the dimer peak [10]: 35%
- percent of the sample in the dodecamer/tetradecamer peak [10]: 65%
- stoichiometry N [10]: 2
Molecule: hub-△kinase (hub, linker and autoinhibitory segment of human CaMKII-α, without the kinase domain) (domain or fragment)

- IC50 [11]: ~100 µM
- Kd [11]: ~90 µM
B1: Peptide B (human CaMKII-α 290-309, unphosphorylated, unlabeled) (peptide)
peptide: LKKFNARRKLKGAILTTMLA
notes: also called the unphosphorylated peptide; wild type peptide; source: synthetic peptide, gift of Leta Nutt (St. Jude Children's Research Hospital), HPLC purified

B2: human CaMKII-α hub, crystallization construct with uncleaved expression tag (domain or fragment)
chain: GSSHHHHHHSSGLEVLFQGPHMVRKQEIIKVTEQLIEAISNGDFESYTKMCDPGMTAFEPEALGNLVEGLDFHRFYFENLWSRNSKPVHTTILNPHIHLMGDESACIAYIRITQYLDAGGIPRTAQSEETRVWHRRDGKWQIVHFHRSGAPSV
notes: uncleaved N-terminal expression tag: hexahistidine followed by a PreScission protease cleavage site; written as a part because it docks on the hub; Ca2+/calmodulin-dependent protein kinase II alpha, human, hub domain, residues 345-475; The 22-residue tag was left uncleaved for crystallization; also called dodecameric human CaMKII-α hub; source: E. coli BL21, purified (Ni-NTA, Q-FF, Superose 6, …)
- stoichiometry N [12]: 12

- IC50 [11]: ~100 µM
- Kd [11]: ~60 µM
B3: Peptide C, unlabeled (human CaMKII-α 290-309 plus C-terminal cysteine, phosphorylated on Thr 305) (peptide)
peptide: LKKFNARRKLKGAIL[pT]TMLAC
notes: human CaMKII-α, residues 290-309; added C-terminal cysteine; also called peptide phosphorylated on Thr 305; source: synthetic peptide, bought: Elim Biopharm, HPLC purified

- IC50 [11]: ~100 µM
- Kd [11]: ~50 µM
B4: Peptide D, unlabeled (human CaMKII-α 290-309 plus C-terminal cysteine, phosphorylated on Thr 306) (peptide)
peptide: LKKFNARRKLKGAILT[pT]MLAC
notes: human CaMKII-α, residues 290-309; added C-terminal cysteine; also called peptide phosphorylated on Thr 306; source: synthetic peptide, bought: Elim Biopharm, HPLC purified

Molecule: B5
- stoichiometry N [13]: 12 and 14

B6: human CaMKII-α hub domain F397A (domain or fragment, UniProt Q9UQM7 345-475, looked up)
chain: VRKQEIIKVTEQLIEAISNGDFESYTKMCDPGMTAFEPEALGNLVEGLDFHRAYFENLWSRNSKPVHTTILNPHIHLMGDESACIAYIRITQYLDAGGIPRTAQSEETRVWHRRDGKWQIVHFHRSGAPSV
notes: Ca2+/calmodulin-dependent protein kinase II alpha, human, hub domain; residues 345-475 are stated for the crystallization construct of the wild type; residue number according to PDB 1HKX; also called F397A mutant hub; mutant hub; source: E. coli BL21, purified; not shown: His6, N-terminal, cleaved
- stoichiometry N [14]: 14
- stoichiometry N [15]: 2
